The results in this text go back to publication PMC4797271, “The quorum-sensing regulator ComA from Bacillus subtilis activates transcription using topologically distinct DNA motifs” (Nucleic Acids Research, 2015).

The experiment deals with T1, sigma-factor σ^A from Bacillus subtilis (Bacillus subtilis W168, UniProt P06224 1-371).
T1 construct: RNA polymerase sigma factor A (house-keeping sigma factor), Bacillus subtilis W168; gene amplified from the chromosome and cloned into pBAD18; also called house-keeping sigma-factor σ^A; σ^A-subunit of RNAP; source: E. coli, pBAD18, purified on Ni-NTA columns
T1 sequence (P06224 whole entry): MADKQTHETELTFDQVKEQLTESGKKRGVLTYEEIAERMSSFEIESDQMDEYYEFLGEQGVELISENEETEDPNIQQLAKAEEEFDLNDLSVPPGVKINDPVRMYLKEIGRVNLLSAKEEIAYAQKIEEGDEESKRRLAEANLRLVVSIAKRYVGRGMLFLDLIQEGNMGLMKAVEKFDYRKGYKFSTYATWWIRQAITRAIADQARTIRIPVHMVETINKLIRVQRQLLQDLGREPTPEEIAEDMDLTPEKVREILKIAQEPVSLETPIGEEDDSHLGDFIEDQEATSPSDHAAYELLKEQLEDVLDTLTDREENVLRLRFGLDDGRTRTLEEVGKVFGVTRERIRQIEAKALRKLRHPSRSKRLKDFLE
Put plainly: native gel or EMSA; super-shift of ComA-bound biotinylated rapA promoter DNA (ComA at full occupancy) on adding α or σ^A; 10 mM HEPES pH 7.6, 2 mM MgCl2, 0.1 mM EDTA, 200 mM KCl, 5 mM DTT, 10% glycerol; 20 min at room temperature; native 8% polyacrylamide gel, 0.5x TBE. The following applies: both partners purified.

B1: ComA from Bacillus subtilis (His6-tagged ComA protein) (natural protein, Bacillus subtilis W168, UniProt P14204 1-214, looked up)
chain: MKKILVIDDHPAVMEGTKTILETDSNLSVDCLSPEPSEQFIKQHDFSSYDLILMDLNLGGEVNGMELSKQILQENPHCKIIVYTGYEVEDYFEEAIRAGLHGAISKTESKEKITQYIYHVLNGEILVDFAYFKQLMTQQKTKPAPSSQKEQDVLTPRECLILQEVEKGFTNQEIADALHLSKRSIEYSLTSIFNKLNVGSRTEAVLIAKSDGVL
notes: Transcription factor ComA, Bacillus subtilis W168; gene amplified from the chromosome and cloned into pBAD18; At full occupancy the rapA promoter probably carries more than one dimer; also called recombinant His6-tagged ComA; source: E. coli, pBAD18, purified on Ni-NTA columns; not shown: His6, N-terminal, kept
Take B1: the binding result is “binds”.
